Experimental data: publication PMC4720288

Target: human MALT1_(Casp-Ig3)(338–719) (human) (UniProt Q9UDY8)
Experiment: crystal structure; in-house X-ray structure of apo MALT1_(Casp-Ig3), data not published

**Q.** “human MALT1_(Casp-Ig3)(338–719) (from UniProt Q9UDY8 338-719) (domain or fragment)” was tested. Which stoichiometry N did it give?
**A.** 2
